Results from the supplement of paper PMC9732359.
± gives the uncertainty stated by the source.

Assay: protein stability index of a GFP-peptide fusion (yeast GPS) (PSI 1-4); higher = more stable; sorted into four equal gates, so the index is relative within each strain
Method in brief: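 Tiled 17-residue yeast protein peptides were fused downstream of GFP in a plasmid that also expresses Cherry, and the pooled library was carried in yeast. Mid-log cultures in leucine-free medium were sorted into four equal gates by GFP/Cherry fluorescence ratio, and plasmids from each gate were PCR-amplified and Illumina-sequenced, with reads assigned to strains by barcodes. The protein stability index for each peptide was each gate's read frequency times its gate number, summed.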

## QKSPKIRDPLTQTGLLQ [RPC82]
doa10∆
  protein stability index: 1.81 ± 0.069
pdr5∆
  protein stability index: 1.74 ± 0.041
san1∆
  protein stability index: 2.02 ± 0.12
ubr1∆
  protein stability index: 1.91 ± 0.046

## QLLIIEKEWENAIRIGE [SRP72]
doa10∆
  protein stability index: 1.44 ± 0.052
pdr5∆
  protein stability index: 1.69 ± 0.054
san1∆
  protein stability index: 2.09 ± 0.12
ubr1∆
  protein stability index: 2.21 ± 0.044

## RETNDDIWRVAGKFELL [SNF2]
doa10∆
  protein stability index: 2.54 ± 0.067
pdr5∆
  protein stability index: 2.26 ± 0.065
san1∆
  protein stability index: 2.43 ± 0.076
ubr1∆
  protein stability index: 2.8 ± 0.066

## SLSIEENIPVALCKNRK [POP1]
doa10∆
  protein stability index: 2.76 ± 0.07
pdr5∆
  protein stability index: 2.98 ± 0.1
san1∆
  protein stability index: 2.75 ± 0.18
ubr1∆
  protein stability index: 2.95 ± 0.1

## IFKIVQSRLMSTSYHLN [MED6]
doa10∆
  protein stability index: 2.25 ± 0.18
pdr5∆
  protein stability index: 2.23 ± 0.13
san1∆
  protein stability index: 1.31 ± 0.096
ubr1∆
  protein stability index: 2.31 ± 0.094

## VSVEGVNVEKFNVEYFA [RPL6A]
doa10∆
  protein stability index: 2.91 ± 0.069
pdr5∆
  protein stability index: 3.21 ± 0.067
san1∆
  protein stability index: 3.14 ± 0.042
ubr1∆
  protein stability index: 3.16 ± 0.054

## YFLKVTFLKYFGWLLSD [IRR1]
doa10∆
  protein stability index: 1.75 ± 0.074
pdr5∆
  protein stability index: 1.59 ± 0.054
san1∆
  protein stability index: 1.88 ± 0.09
ubr1∆
  protein stability index: 1.8 ± 0.062

## EPKKDKESIVLPTVGFD [YOR098C/NUP1]
doa10∆
  protein stability index: 2.43 ± 0.18
pdr5∆
  protein stability index: 3.43 ± 0.19
san1∆
  protein stability index: 3.11 ± 0.16
ubr1∆
  protein stability index: 2.92 ± 0.07

## NNDFKLSIDKVLKKPNR [RET1]
doa10∆
  protein stability index: 2.06 ± 0.092
pdr5∆
  protein stability index: 2.84 ± 0.12
san1∆
  protein stability index: 3.01 ± 0.1
ubr1∆
  protein stability index: 2.94 ± 0.13

## TAETGYIQRRLVKALED [RPO21]
doa10∆
  protein stability index: 2.31 ± 0.073
pdr5∆
  protein stability index: 2.74 ± 0.074
san1∆
  protein stability index: 2.69 ± 0.076
ubr1∆
  protein stability index: 2.74 ± 0.072

## GQQSVEGKRIAFGFVDR [RPO21]
doa10∆
  protein stability index: 3.25 ± 0.2
pdr5∆
  protein stability index: 3.01 ± 0.2
san1∆
  protein stability index: 3.44 ± 0.11
ubr1∆
  protein stability index: 3.52 ± 0.14

## VRDELRKVEKEKNEKER [UBP6]
san1∆
  protein stability index: 3.5 ± 0.13
ubr1∆
  protein stability index: 3.78 ± 0.2

## FTTLLESKQDGLSILFL [YML103C/NUP188]
doa10∆
  protein stability index: 2.53 ± 0.097
pdr5∆
  protein stability index: 2.68 ± 0.12
san1∆
  protein stability index: 2.56 ± 0.096
ubr1∆
  protein stability index: 3 ± 0.14

## MDDEEWRSKRIEQLFPV [RPC53]
doa10∆
  protein stability index: 3.24 ± 0.085
pdr5∆
  protein stability index: 2.31 ± 0.055
san1∆
  protein stability index: 2.89 ± 0.049
ubr1∆
  protein stability index: 2.37 ± 0.041

## ERLVEFSNVNELQEKNV [YIL149C/MLP2]
doa10∆
  protein stability index: 3.31 ± 0.23
pdr5∆
  protein stability index: 3.36 ± 0.24
ubr1∆
  protein stability index: 3.1 ± 0.2

## PAHTKYMLIEEAASSNK [ITC1]
doa10∆
  protein stability index: 3.05 ± 0.12
pdr5∆
  protein stability index: 2.93 ± 0.11
san1∆
  protein stability index: 3.02 ± 0.1
ubr1∆
  protein stability index: 3.01 ± 0.095

## ERFTKSKTLSLIQSYSL [FAS1]
doa10∆
  protein stability index: 2.29 ± 0.063
pdr5∆
  protein stability index: 2.06 ± 0.043
san1∆
  protein stability index: 1.93 ± 0.11
ubr1∆
  protein stability index: 2.06 ± 0.039

## YINGKATALANLRKSRG [RPO31]
doa10∆
  protein stability index: 3 ± 0.067
pdr5∆
  protein stability index: 3.13 ± 0.075
san1∆
  protein stability index: 2.81 ± 0.064
ubr1∆
  protein stability index: 3 ± 0.067

## KDNDKNLKFLKNKDSLV [SRB4]
doa10∆
  protein stability index: 3.48 ± 0.094
pdr5∆
  protein stability index: 3.21 ± 0.12
san1∆
  protein stability index: 3.28 ± 0.072
ubr1∆
  protein stability index: 3.34 ± 0.068

## ILNFLNQEDLFELVHHF [YML103C/NUP188]
doa10∆
  protein stability index: 2.56 ± 0.14
pdr5∆
  protein stability index: 2.8 ± 0.083
san1∆
  protein stability index: 1.88 ± 0.22
ubr1∆
  protein stability index: 2.16 ± 0.072

## RNAQAQREAAAEYAQLL [RPS6A]
doa10∆
  protein stability index: 2.88 ± 0.23
pdr5∆
  protein stability index: 3.31 ± 0.2
san1∆
  protein stability index: 2.85 ± 0.15
ubr1∆
  protein stability index: 3.2 ± 0.12

## TSSQKEPFFLVTKITDM [SRB8]
doa10∆
  protein stability index: 2.36 ± 0.059
pdr5∆
  protein stability index: 2.72 ± 0.071
san1∆
  protein stability index: 2.52 ± 0.054
ubr1∆
  protein stability index: 2.62 ± 0.054

## ICLMTLIETVFVKNIRM [RPN9]
doa10∆
  protein stability index: 1.22 ± 0.064
pdr5∆
  protein stability index: 1.3 ± 0.069
san1∆
  protein stability index: 1.22 ± 0.13
ubr1∆
  protein stability index: 1.35 ± 0.074

## AKRNLPHTTLVNECIAQ [CDC53]
doa10∆
  protein stability index: 2.37 ± 0.072
pdr5∆
  protein stability index: 2.48 ± 0.059
san1∆
  protein stability index: 2.65 ± 0.067
ubr1∆
  protein stability index: 2.68 ± 0.04

## LEANGRSLEKVNNSVSK [SSN2]
doa10∆
  protein stability index: 3.48 ± 0.15
pdr5∆
  protein stability index: 3.47 ± 0.12
san1∆
  protein stability index: 3.18 ± 0.11
ubr1∆
  protein stability index: 3.37 ± 0.1

## NVPVHVSPAFRVQVGDI [RPS11A]
doa10∆
  protein stability index: 2.69 ± 0.075
pdr5∆
  protein stability index: 3.15 ± 0.08
san1∆
  protein stability index: 2.68 ± 0.079
ubr1∆
  protein stability index: 2.71 ± 0.06

## KCFDDIEPHIFDQLIEW [YCG1]
doa10∆
  protein stability index: 3.2 ± 0.075
pdr5∆
  protein stability index: 3.1 ± 0.081
san1∆
  protein stability index: 3.31 ± 0.046
ubr1∆
  protein stability index: 3.3 ± 0.046
